How the values were obtained:
[1] = molecular target: T1, human melanocortin 1 receptor (human, UniProt Q01726 1-317); assay: competition binding vs [125I]-NDP-α-MSH, whole HEK293 cells stably expressing the receptor
T1 construct: whole, on cells; also called hMC1R; hMC1 receptor

[2] = molecular target: T1, human melanocortin 1 receptor; assay: cell-based or functional assay
[3] = molecular target: T1, human melanocortin 1 receptor; assay: competition binding vs [125I]-NDP-α-MSH, A375 human melanoma cells

T1 sequence (Q01726 whole entry): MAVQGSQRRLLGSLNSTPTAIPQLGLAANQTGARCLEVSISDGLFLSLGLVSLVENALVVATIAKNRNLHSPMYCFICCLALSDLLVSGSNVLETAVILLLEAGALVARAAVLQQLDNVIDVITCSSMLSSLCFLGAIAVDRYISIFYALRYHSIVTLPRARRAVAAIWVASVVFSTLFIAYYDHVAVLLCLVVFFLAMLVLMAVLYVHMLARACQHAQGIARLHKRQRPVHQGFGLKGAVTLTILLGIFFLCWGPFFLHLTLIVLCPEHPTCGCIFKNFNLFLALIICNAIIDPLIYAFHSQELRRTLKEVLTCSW

B1: Peptide 32: Ac-Nle-c[Asp-(NMe)His-(NMe)nal-(NMe)Arg-(NMe)Trp-(NMe)Lys]-NH2 (peptide)
peptide: LDHXRWK
modifications: N-terminal acetyl; Nle at 4; D-Nal(2') (nal) at 7; side-chain lactam Asp5-Lys10; C-terminal amide; backbone N-methyl on His6, nal7, Arg8, Trp9 and Lys10 (α-MSH 4-10 numbering)
notes: also called Penta-N-methylated compound 32
[1]
  IC50: 68 nM

B2: Peptide 28: Ac-Nle-c[Asp-(NMe)His-nal-(NMe)Arg-(NMe)Trp-(NMe)Lys]-NH2 (peptide)
peptide: LDHXRWK
modifications: N-terminal acetyl; Nle at 4; D-Nal(2') (nal) at 7; side-chain lactam Asp5-Lys10; C-terminal amide; backbone N-methyl on His6, Arg8, Trp9 and Lys10 (α-MSH 4-10 numbering)
[2]
  EC50 (cAMP): 20 nM

B3: Peptide 15: Ac-Nle-c[Asp-(NMe)His-nal-(NMe)Arg-Trp-Lys]-NH2 (peptide)
peptide: LDHXRWK
modifications: N-terminal acetyl; Nle at 4; D-Nal(2') (nal) at 7; side-chain lactam Asp5-Lys10; C-terminal amide; backbone N-methyl on His6 and Arg8 (α-MSH 4-10 numbering)
[2]
  EC50 (cAMP): 22 nM
[3]
  IC50: 14.8 nM

From patent publication US20190177371A1 (published 2019)
